In general, Kd refers to the equilibrium constant for the complex coming apart. What is called EC50 is the concentration needed to bring the measured effect to its halfway point.

Test [1] deals with T1, Peptide D (N-terminal domain of human PAR-2-mouse IgG2a) (Human).
T1 chain: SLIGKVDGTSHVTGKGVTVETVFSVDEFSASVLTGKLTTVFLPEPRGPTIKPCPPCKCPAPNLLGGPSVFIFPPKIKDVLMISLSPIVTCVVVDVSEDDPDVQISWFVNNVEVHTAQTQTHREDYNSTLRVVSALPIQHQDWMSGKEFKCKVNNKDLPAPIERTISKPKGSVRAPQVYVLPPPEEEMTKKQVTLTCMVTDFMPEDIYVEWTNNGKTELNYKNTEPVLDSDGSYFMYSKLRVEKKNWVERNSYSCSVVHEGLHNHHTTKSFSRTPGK
As to the kind of experiment: peptide ELISA.

Test [2] has as its target T2, Peptide F (monkey PAR-2), N-terminal biotinylated (Monkey (Macaca mulatta), N-terminal biotin via G4S linker).
T2 construct: also called Peptide F N-Term
Nature of the test: SPR, antibody captured. The protocol:
(§1) Equilibrium dissociation constants (KD values) for antigen binding to selected purified PAR-2 antibodies were determined by surface kinetics using a real-time surface plasmon resonance biosensor assay. Antibody was captured on either a rabbit anti-mouse IgG polyclonal antibody (GE Healthcare, Piscataway, N.J.) surface or a goat anti-human IgG polyclonal antibody (Jackson Immuno Research Lab, West Grove, Pa.) surface created through direct amine chemical coupling to a BIACORE™ CM5 sensor chip to form a captured antibody surface. […] Antigen-antibody binding and dissociation were monitored in real time at room temperature. Kinetic analysis was performed to calculate KD and half-life of antigen/antibody complex dissociation (Table 10). For those antibodies where no T_{1/2} value is shown, steady state analysis was used to calculate the KD value. NB: no binding observed under current experimental conditions. ND: not determined.

The target of test [3] is T3, full length human PAR-2 (human, UniProt P55085 26-397). As to the kind of experiment: cell-based or functional assay.
The target of test [4] is T3, full length human PAR-2. As to the kind of experiment: cell-based or functional assay. This is another data set of the same source.
The target in test [5] is T4, Peptide A (human PAR-2), unbiotinylated (Human).
T4 construct: also called Peptide A No Biotin
T4 peptide: GTNRSSKGRSLIGKVDGT
Nature of the test: peptide ELISA titration. How it is done:
(§2) Anti-PAR-2 antibodies were tested for their ability to bind to the PAR-2 peptides. Various PAR-2 Peptides (Table 3) were coated onto 96-well plates at a concentration of 2 μg/ml and incubated overnight followed by blocking in a suitable blocking agent for one hour. […] Purified anti-PAR-2 antibodies were added to the plate coated with PAR-2 peptides to a final concentration ranging from 0.2 to 2.0 μg/ml and incubated for one hour at room temperature. Detection of bound antibodies was determined with Horse-Radish Peroxidase (HRP) conjugated anti-mouse or human IgG (Jackson Immuno Research Lab, West Grove, Pa.) and developed by standard colorimetric response using tetramethylbenzidine (TMB) substrate. Absorbance was read at OD₄₅₀ for 0.1 second.
(§3) In another experiment, selected anti-PAR-2 antibodies cloned onto human IgG4 were tested for binding to unbiotinylated and biotinylated forms of PAR-2 peptides (Peptides A, E, F and G; as described above). […] Absorbance values at 450 nm were analyzed using a sigmoidal dose-response model in GraphPad Prism (GraphPad Software, Inc., La Jolla, Calif.) and EC₅₀ values were reported (Table 9). EC₅₀ values are defined as the antibody concentration required to achieve 50% maximal binding to PAR-2 peptide.
For orientation: An ELISA detects its analyte on a solid surface through an enzyme-linked reagent.

In test [6] the target is T5, Peptide A (human PAR-2), N-terminal biotinylated (Human, N-terminal biotin via G4S linker).
T5 construct: also called Peptide A N-Term
T5 peptide: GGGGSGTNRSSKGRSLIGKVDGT
As to the kind of experiment: peptide ELISA titration. The protocol: as §2, §3

The target in test [7] is T6, Peptide A (human PAR-2), C-terminal biotinylated (Human, C-terminal biotin via G4S linker).
T6 construct: also called Peptide A C-Term
As to the kind of experiment: peptide ELISA titration. How it is done:
as §2, §3

In test [8] the target is T2, Peptide F (monkey PAR-2), N-terminal …. As to the kind of experiment: peptide ELISA titration. How it is done: as §2, §3
The target of test [9] is T4, Peptide A (human PAR-2), unbiotinylated. Nature of the test: peptide ELISA. The protocol:
as §2

The target in test [10] is T5, Peptide A (human PAR-2), N-terminal …. As to the kind of experiment: peptide ELISA. The protocol: as §2
The target of test [11] is T6, Peptide A (human PAR-2), C-terminal …. As to the kind of experiment: peptide ELISA. The protocol:
as §2

The target in test [12] is T7, Peptide B (human PAR-2), unbiotinylated (Human).
T7 construct: also called Peptide B No Biotin
T7 peptide: SLIGKVDGTSHVTG
Nature of the test: peptide ELISA. The protocol: as §2

Test [13] has as its target T8, Peptide B (human PAR-2), N-terminal biotinylated (Human).
T8 construct: also called Peptide B N-Term
T8 peptide: Biotin-GGGGSSLIGKVDGTSHVTG
As to the kind of experiment: peptide ELISA. How it is done: as §2

For test [14], the target named is T9, Peptide B (human PAR-2), C-terminal biotinylated (Human, not fully specified).
T9 construct: also called Peptide B C-Term
T9 peptide: SLIGKVDGTSHVTGGGGGS-biotin
As to the kind of experiment: peptide ELISA. How it is done:
as §2

The target in test [15] is T10, Peptide C (human PAR-2), N-terminal biotinylated (Human).
T10 construct: also called Peptide C N-Term
T10 peptide: Biotin-GGGGSSLIGKV
As to the kind of experiment: peptide ELISA. The protocol: as §2

Test [16] has as its target T11, Peptide C (human PAR-2), C-terminal biotinylated (Human).
T11 construct: also called Peptide C C-Term
T11 peptide: SLIGKVGGGGS-biotin
Nature of the test: peptide ELISA. How it is done: as §2

Test [17] has as its target T4, Peptide A (human PAR-2), unbiotinylated. Nature of the test: SPR, antibody captured. The protocol: as §1
For orientation: Surface plasmon resonance follows binding to a sensor surface in real time, without labels.

Test [18] deals with T7, Peptide B (human PAR-2), unbiotinylated. As to the kind of experiment: SPR, antibody captured. How it is done:
as §1

In test [19] the target is T3, full length human PAR-2. Nature of the test: cell-based or functional assay. The source holds these as a separate data set.
Test [20] concerns the target T6, Peptide A (human PAR-2), C-terminal …. Nature of the test: SPR, peptide immobilized. How it is done: (§4) In another series of experiments, equilibrium dissociation constants (KD values) for purified antibody binding to selected biotinylated and unbiotinylated forms of PAR-2 peptides were determined by surface kinetics using a real-time surface plasmon resonance biosensor assay. Neutravidin (Pierce, Rockford, Ill.) was covalently coupled to the surface of a Biacore™ C1 chip or CM5 chip using amine coupling chemistry. Biotinylated (N-Term or C-Term) PAR-2 peptides (Peptides A and B) were immobilized on the surface via the high affinity binding interaction between biotin and the amine coupled Neutravidin.
(§5) In a first experiment using this format, varying concentrations (ranging from 5 to 100 μg/ml) of purified antibody were injected at a rate of 50 μl/min over a surface coated with immobilized peptide at low-density (<1RU) for 300 seconds. Antibody-peptide binding and dissociation was monitored in real time 25° C.

The target of test [21] is T9, Peptide B (human PAR-2), C-terminal …. As to the kind of experiment: SPR, peptide immobilized. How it is done: as §4, §5
Test [22] has as its target T3, full length human PAR-2. Nature of the test: cell ELISA, 10 ug/ml antibody. An excerpt:
HEK293 cells were transfected with an NF-κB-luciferase-IRES-eGFP reporter plasmid. […] A clonal cell line, named D9, having low background levels of luciferase activity and high levels of eGFP when induced with IL-1β was made by a series of successive sorts of cell populations using flow cytometry. The 293/D9 cell line was then separately transfected with human PAR-2 or mouse PAR-2 to create the stable cell lines 293/D9/h PAR-2rec and 293/D9/m PAR-2rec, respectively.
Binding of anti-PAR-2 antibodies to 293/D9/hPAR-2rec cells was determined by ELISA. 293/D9 and 293/D9/hPAR-2rec cells were plated at a density of 5×10⁴ cells/well in media and incubated overnight at 37° C. and 5% CO₂. Purified antibody was added to the cells to a final concentration of 10 μg/ml and incubated at room temperature for one hour. Cells were then fixed and washed before detection of bound antibodies with HRP conjugated anti-mouse IgG and developed by standard colorimetric response using TMB substrate. Absorbance was read at OD₄₅₀ for 0.1 second.

Positions count from the first letter of the chain named. Where two headings read alike, the source gives them in different places. Where no end group is shown, it is not given here. The star is where a group is joined. Biotin = O=C1N[C@H]2[C@H](CS[C@H]2CCCCC(=O)*)N1

T2 sequence (peptide, as listed by the source): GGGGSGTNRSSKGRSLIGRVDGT
T3 sequence (P55085 26-397 G138A limits assumed): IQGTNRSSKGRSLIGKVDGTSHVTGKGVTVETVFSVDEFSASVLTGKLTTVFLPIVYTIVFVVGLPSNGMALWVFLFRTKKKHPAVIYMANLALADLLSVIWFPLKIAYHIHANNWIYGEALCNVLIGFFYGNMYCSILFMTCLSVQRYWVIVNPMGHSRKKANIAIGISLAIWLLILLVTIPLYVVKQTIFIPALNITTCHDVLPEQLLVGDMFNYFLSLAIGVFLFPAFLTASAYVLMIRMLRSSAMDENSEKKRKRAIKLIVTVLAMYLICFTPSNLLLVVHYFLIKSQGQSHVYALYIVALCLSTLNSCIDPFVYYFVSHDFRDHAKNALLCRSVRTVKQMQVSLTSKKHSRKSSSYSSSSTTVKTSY

B1: H4H591N (antibody, human IgG4, V domains shown)
VH: EVQLLESGGGLVQPGGSLRLSCATSGFTFSRYTMTWVRQAPGKGLFWVSGIGGSGGRAYYADSVKGRFTLSRDNSKNTLYLQMNSLRAEDTAVYYCAKEGDSGYDLDYWGRGTLVTVSS
VL: DIQMTQYPSSLSASVGDRVTITCRARQGISNYLAWLQQKPGKAPKSLIYAASSLQRGVPSKFSGSGSGTDFTLTISSLQPEDSATYYCQQYKISPLTFGGGTKVEIK
notes: also called H2M591N variable regions
For B1, the binding result in [1] was “binds”. Further, the Kd in [2] was determined as 8.54 nM. Also, the T1/2 in [2] was found to be 21 min. Besides, the “IC50, NF-kB-luciferase, 20 nM Trypsin” value in test [3] was 204 nM. In addition, in test [4], the “IC50, NF-kB-luciferase, 10 nM Human Trypsin 1” value (“IC50 … 10 nM Human Trypsin 1” for short) stood at 105 nM. In addition, the “IC50, NF-kB-luciferase, 200 nM Factor Xa” value in [4] stood at 74.6 nM. For the same molecule, the “IC50, NF-kB-luciferase, 750 nM Lung Tryptase” value (shortened to “IC50 … 750 nM Lung Tryptase”) in test [4] turned out to be 62.9 nM. Besides, the EC50 in [5] came out at 0.01 nM; in [6], 0.022 nM; in test [7], 0.016 nM; in [8], 0.011 nM.

B2: H2M618N (antibody, V domains shown)
VH: EVQLLESGGGLVQPGGSLRLSCAASGFTFRSYTMTWVRQAPGKGLDWVSGITDSGAGTYYGDSVKGRFTISRDNSKNTLYLQMNSLRAEDTAVYYCVKEGDSGYDLDYWGQGTLVTVSS
VL: B1 VL with Y7S, R26S, N31T, A51T, R56S, G66R, S83F, I93S
notes: chimeric: human variable, mouse constant domains
Consider B2, for which the OD450 in test [9], in test [10], in [11], in test [12], in test [13] and in [14] was 1 to 4 od each time. Also, the OD450 in test [15] and in [16] was 0 to 0.09 od throughout. Further, the Kd in [17] is 9.62 nM; in [18], 126 nM; in test [20], 1.8 nM; in test [21], 2.32 nM. Moreover, the T1/2 in test [17] was 6.7 min; in test [18], 3.5 min; in test [20], 79 min; in test [21], 60 min. The “IC50 … 10 nM Human Trypsin 1” value in test [19] was 154 nM. In addition, the “IC50, NF-kB-luciferase, 10 nM Trypsin” value in test [19] is 12.4 nM. For the same molecule, the “IC50, NF-kB-luciferase, 20 nM Trypsin” value in test [19] came out at 70 nM. Besides, the “IC50, NF-kB-luciferase, 75 nM Trypsin” value in test [19] was 7.8 nM. Also, the “IC50, NF-kB-luciferase, 200 nM Factor Xa” value in test [19] was 54.2 nM. Moreover, the “IC50, NF-kB-luciferase, 250 nM Trypsin” value in [19] turned out to be 6.6 nM. Moreover, in [19], the “IC50 … 750 nM Lung Tryptase” value came to 7 nM. The “A450 ratio (293/D9/hPAR-2rec to 293/D9 cells)” value in test [22] stood at 2.44.

B3: H4H618N (antibody, human IgG4, V domains shown)
VH: B2 VH
VL: B1 VL with Y7S, R26S, N31T, A51T, R56S, G66R, S83F, I93S
notes: also called H2M618N variable regions
With B3, the binding result in [1] is “binds”. In test [2], this molecule returned a Kd of 13.8 nM and a T1/2 of 5 min. The “IC50, NF-kB-luciferase, 20 nM Trypsin” value in test [3] came out at 50.2 nM. Besides, in test [4], the “IC50 … 10 nM Human Trypsin 1” value is 92.2 nM; the “IC50, NF-kB-luciferase, 200 nM Factor Xa” value was determined as 47.2 nM; the “IC50 … 750 nM Lung Tryptase” value is 8.5 nM. In [5], this molecule had an EC50 of 0.009 nM. This molecule also yielded an EC50 in test [6] of 0.021 nM. In test [7], it took 0.016 nM to reach a half-maximal effect (EC50). The molecule further returned an EC50 in [8] of 0.011 nM.
